The record followed here is paper PMC3024946, “Hydroxyproline-containing collagen analogs trigger the release and activation of collagen-sequestered proMMP-2 by competition with prodomain-derived peptide P33-42” (Fibrogenesis & Tissue Repair, 2011).

For orientation: Kd means the constant that tells how readily two partners part at equilibrium. The low end stands for a tighter complex, the high end for a looser complex.

Data set [1] in a line: In situ binding of MMPs to fibrotic liver sections. Also on record: species or system human. Conditions: immunohistochemistry; 25 ng MMP, 30 min. The method, then: Human cirrhotic liver cryostat sections (5 μm) were air-dried and fixed in ice-cold acetone for 10 min. Tissue sections were rehydrated with PBS and incubated with 25 ng/50 μl of the respective proMMP and actMMP for 30 min or were left untreated. After thorough washing with PBS, antibodies specific for human MMP-9 (clone MAB911; R&D Systems, Minneapolis, MN, USA) and human MMP-2 (clone 75-7F7; Oncogene, Cambridge, MA, USA) were applied, and primary antibody binding was detected using the alkaline phosphatase-antialkaline phosphatase detection system (Dako, Hamburg, Germany). An irrelevant primary mouse antibody served as control. Nuclei were counterstained with Hemalaun, and slides were examined by standard light microscopy.

Data set [2] concerns collagen type I (CI). In words: SPR binding of MMPs to immobilized CI, nonactivating buffer. Set-up: species or system human. Conditions: for Off rate / Kd: without (GPO)10, MMP 100 nM, PBS, 0.05% Tween 20, 25°C; for Off rate: mean from at least three experiments; for Kd: mean ± SD, at least three experiments. The method, then:
(§1) Sensor chip preparations and SPR measurements were performed using a BiacoreX device and the Bia-evaluation software (version 3.2; Biacore, Uppsala, Sweden). The pepsin-resistant triple-helical part of human fibrillar CI (100 μg/ml) in 10 mM acetate coupling buffer, pH 4.8, was immobilized to a dextran matrix-sensor chip at a flow rate of 5 μl/min, resulting in 5,500 resonance units from CI covalently linked via its primary amino groups. The control flow cell was prepared using the coupling buffer without CI. Surfaces were activated and blocked as described previously. Immediately after thawing, pro- and actMMP-2 and pro- and actMMP-9 were diluted to 100 to 250 nM in MMP activity buffer or in PBS and 0.05% (vol/vol) Tween 20. For SPR measurements, flow rates were 10 μl/min at 25°C, and equilibrium was typically reached after 30 to 60 s. The effects of (GPO)10, GAP, (POG)5, (GPP)10 and P33-42 on MMP-2 and MMP-9 binding to CI and their enzymatic activity were determined by adding the binding competitors to the (pro- and act)MMP-2 and MMP-9 solution in 10- to 150-fold molar excesses. Effects independent of MMP-2 and MMP-9 activity were monitored in the presence of Ro 28-2653 (1 μM) during SPR analysis. The gelatinase inhibitor Ro 28-2653 was a generous gift from H.-W. Krell (Roche, Grenzach-Wyhlen, Germany). Sensor surfaces were regenerated with 10 mM glycine, pH 2.3, for 1 min between runs, and sensor chips were used up to 25 times. Kinetic parameters were analyzed using the 1:1 binding model with drifting baseline and subtraction of the control flow cell binding from sensorgrams obtained with immobilized CI. Binding constants (Kd) were calculated from the association (ka) and dissociation rates (kd) obtained from individual binding curves at different concentrations. Individual drifts of the resonance signal were fitted locally, and χ^2 values of 0.2% to 1.0% of the maximum resonance value were considered good fits.

Data set [3] concerns collagen type I (CI). In words: SPR binding of MMP-2 to CI, MMP activity buffer with Ro 28-2653. Set-up: species or system human. The method, then:
as §1
(Surface plasmon resonance follows binding to a sensor surface in real time, without labels.)

The test system of data set [4] is ProMMP-2. Briefly: DQ-gelatine degradation assay with MMP-2. Format: biochemical, human. Conditions: MMP alone; 10 ng; 5 h at 25°C; plateau (actMMP-2) or baseline (proMMP-2) level.

B1: ProMMP-2: 72-kDa latent proform of human recombinant MMP-2 (protein)
chain: APSPIIKFPGDVAPKTDKELAVQYLNTFYGCPKESCNLFVLKDTLKKMQKFFGLPQTGDLDQNTIETMRKPRCGNPDVANYNFFPRKPKWDKNQITYRIIGYTPDLDPETVDDAFARAFQVWSDVTPLRFSRIHDGEADIMINFGRWEHGDGYPFDGKDGLLAHAFAPGTGVGGDSHFDDDELWTLGEGQVVRVKYGNADGEYCKFPFLFNGKEYNSCTDTGRSDGFLWCSTTYNFEKDGKYGFCPHEALFTMGGNAEGQPCKFPFRFQGTSYDSCTTEGRTDGYRWCGTTEDYDRDKKYGFCPETAMSTVGGNSEGAPCVFPFTFLGNKYESCTSAGRSDGKMWCATTANYDDDRKWGFCPDQGYSLFLVAAHEFGHAMGLEHSQDPGALMAPIYTYTKNFRLSQDDIKGIQELYGASPDIDLGTGPTPTLGPVTPEICKQDIVFDGIAQIRGEIFFFKDRFIWRTVTPRDKPMGPLLVATFWPELPEKIDAVYEAPQEEKAVFFAGNEYWIYSASTLERGYPKPLTSLGLPPDVQRVDAAFNWSKNKKTYIFAGDKFWRYNEVKKKMDPGFPKLIADAWNAIPDNLDAVVDLQGGGHSYFFKGAYYLKLENQSLKSVKFGSIKSDWLGC
modifications: [125I]-Bolton-Hunter label in the solid-phase assays (dot blot, microwells); Cy2 label in the tissue release experiment; no label told for SPR and immunohistochemistry
With B1, the “binding to liver sections” value in data set [1] is listed as “preferential staining of fibrotic septa”. The figures for the “reduction of binding upon MMP activation” value in data set [2] (nonactivating buffer) and in data set [3] (MMP activity buffer with Ro 28-2653) were 2.5 -fold and 35 -fold, respectively. Further, in data set [2], the Off rate is about 0.48 s⁻¹. In addition, the dissociation constant (Kd) in data set [2] was 70 ± 30 nM; in data set [3] (no competitor, MMP-2 100 nM, MMP activity buffer, 1 μM Ro 28-2653, 25°C, mean ± SD, at least three experiments), 7.1 ± 0.1 nM. For the same molecule, in data set [3] (MMP activity buffer with Ro 28-2653 vs nonactivating buffer), the “binding enhancement to CI” value is listed as 10 -fold. The DQ-gelatine conversion entry in data set [4] is “about 200 relative fluorescence units”.

B2: ProMMP-9: 92-kDa latent proform of human recombinant MMP-9 (protein)
chain: APRQRQSTLVLFPGDLRTNLTDRQLAEEYLYRYGYTRVAEMRGESKSLGPALLLLQKQLSLPETGELDSATLKAMRTPRCGVPDLGRFQTFEGDLKWHHHNITYWIQNYSEDLPRAVIDDAFARAFALWSAVTPLTFTRVYSRDADIVIQFGVAEHGDGYPFDGKDGLLAHAFPPGPGIQGDAHFDDDELWSLGKGVVVPTRFGNADGAACHFPFIFEGRSYSACTTDGRSDGLPWCSTTANYDTDDRFGFCPSERLYTQDGNADGKPCQFPFIFQGQSYSACTTDGRSDGYRWCATTANYDRDKLFGFCPTRADSTVMGGNSAGELCVFPFTFLGKEYSTCTSEGRGDGRLWCATTSNFDSDKKWGFCPDQGYSLFLVAAHEFGHALGLDHSSVPEALMYPMYRFTEGPPLHKDDVNGIRHLYGPRPEPEPRPPTTTTPQPTAPPTVCPTGPPTVHPSERPTAGPTGPPSAGPTGPPTAGPSTATTVPLSPVDDACNVNIFDAIAEIGNQLYLFKDGKYWRFSEGRGSRPQGPFLIADKWPALPRKLDSVFEERLSKKLFFFSGRQVWVYTGASVLGPRRLDKLGLGADVAQVTGALRSGRGKMLLFSGRRLWRFDVKAQMVDPRSASEVDRMFPGVPLDTHDVFQYREKAYFCQDRFYWRVSSRSELNQVDQVGYVTYDILQCPED
modifications: [125I]-Bolton-Hunter label in the solid-phase assays (dot blot, microwells); no label told for SPR and immunohistochemistry
For B2, the “binding to liver sections” value in data set [1] was “preferential staining of fibrotic septa”. Also, in data set [2], the Off rate came to 0.32 s⁻¹ and the Kd was 120 ± 90 nM.
